Measurements reported in the RNAGym collection of RNA variant scans (doi:10.1021/acssynbio.7b00057).

B1: Pistol ribozyme (parent)
chain: GGGUCGUUGUUCCAUAAUCGCGUGGAUAUGGCACGCAAGUUUCUACCGGGCACCGUAAAUGUCCGACUGGAGCCGUUCGGGCGGCUAUAAACAGACCUCAGGCCCGAAGCGUGGCGGCACCUGCCGCCGGUGGUAAAAAAGAUCGGAAGAGCACACGUCU

Variants of: B1
Assay: aptazyme ON/OFF ratio, guanine; higher = stronger switching; co-transcriptional cleavage with and without guanine

Aptazyme ON/OFF ratio, 1.3:
U7G U8G G9U C12G C13A
U7G U8G G9C U11G C13A
U7G U8G G9C U11G C12U C13A
U7G U8G G9C U11G C12A C13U

Aptazyme ON/OFF ratio, 1.36:
U7G U8G G9C U11A C13U

Aptazyme ON/OFF ratio, 1.4:
U7G U8G G9U U10C C12A C13U
U7G U8G G9C U11C C13A
U7G U8G G9C U11C C13G

Aptazyme ON/OFF ratio, 1.17:
U7G U8G G9C U11G C12G C13A
U7G U8G G9C U10G U11G C13G
U7G U8G G9C U11A C12G
U7G U8G G9U U10A U11C C12A C13U
U7G U8G G9C U10G U11G C12G C13G
U7G U8G G9U C12A C13A
U7G U8G G9C U10G U11G C12U C13U

Aptazyme ON/OFF ratio, 1.28:
U7G U8G G9U U10A U11A C13U
U7G U8G G9C U10G U11G C13U
U7G U8G G9U U10C C12U
U7G U8G G9U U10A C12A

Aptazyme ON/OFF ratio, 1.07:
U7G U8G G9C U11A C12G C13G
U7G U8G G9U U10A U11G C13A
U7G U8G G9U U10A U11C C13U
U7G U8G G9U U10A U11G C12U
U7G U8G G9U U10A C12G C13A

Aptazyme ON/OFF ratio, 1.26:
U7G U8G G9C U10G U11G
U7G U8G G9U C13G
U7G U8G G9C U11C C12U C13U
U7G U8G G9C U11A C12U C13U
U7G U8G G9U C12U C13U
U7G U8G G9C U11G C12U C13U

Aptazyme ON/OFF ratio, 1.49:
U7G U8G G9C U11G C13U

Aptazyme ON/OFF ratio, 1.08:
U7G U8G G9U U10A U11C C12U C13G
U7G U8G G9U U10A U11A C13G
U7G U8G G9U U10A U11C C12G C13A
U7G U8G G9U U10A U11G C12U C13U
U7G U8G G9U U10A U11C C12A C13G
U7G U8G G9C U10G U11C C13G
U7G U8G G9U U10A U11G C12G

Aptazyme ON/OFF ratio, 1.66:
U7G U8G G9U C12U

Aptazyme ON/OFF ratio, 1.09:
U7G U8G G9U U10A U11C C12G C13G
U7G U8G G9U U10A U11C
U7G U8G G9C U10G U11C C13A
U7G U8G G9U U10A U11C C13G
U7G U8G G9U U10A C12U C13G
U7G U8G G9U U10A C12G C13G
U7G U8G G9C U10G U11G C12A C13A
U7G U8G G9C U10G U11G C12A C13U

Aptazyme ON/OFF ratio, 1.02:
U7G U8G G9U U10A U11A C12A C13A

Aptazyme ON/OFF ratio, 1.25:
U7G U8G G9U U10C C12G C13U

Aptazyme ON/OFF ratio, 1.73:
U7G U8G G9C U11G C12A

Aptazyme ON/OFF ratio, 1.31:
U7G U8G G9U U10C C12A C13A
U7G U8G G9C U11A C12A
U7G U8G G9U C12G C13G
U7G U8G G9U U10A C13U
U7G U8G G9U U10A U11A C12U
U7G U8G G9C U11G C12U

Aptazyme ON/OFF ratio, 1.2:
U7G U8G G9C U11A C12G C13U
U7G U8G G9U U10A U11A C12G C13A

Aptazyme ON/OFF ratio, 1.03:
U7G U8G G9U U10A U11G C12A

Aptazyme ON/OFF ratio, 1.15:
U7G U8G G9C U10G U11G C12G
U7G U8G G9U U10A C12A C13U
U7G U8G G9C U11A C12U C13G
U7G U8G G9C U11A C13A
U7G U8G G9C U10G U11G C12A C13G
U7G U8G G9C U10G U11C C12U C13A

Aptazyme ON/OFF ratio, 1.29:
U7G U8G G9U U10A U11C C12U C13U
U7G U8G G9U U10C C12A C13G
U7G U8G G9U U10A U11A C12A C13U
U7G U8G G9U U10A C12U

Aptazyme ON/OFF ratio, 1.22:
U7G U8G G9U U10C C12G
U7G U8G G9U U10A U11C C12U

Aptazyme ON/OFF ratio, 1.19:
U7G U8G G9C U10G U11C C12G C13A
U7G U8G G9C U10G U11G C12U
U7G U8G G9U U10A U11A C12G
U7G U8G G9U U10A U11C C12G

Aptazyme ON/OFF ratio, 1.51:
U7G U8G G9U U10C
U7G U8G G9U

Aptazyme ON/OFF ratio, 1.04:
U7G U8G G9C U10G U11C C12U
U7G U8G G9U U10A U11G C12A C13G
U7G U8G G9C U11A C13G

Aptazyme ON/OFF ratio, 3.21:
U7G U8G G9U U10A

Aptazyme ON/OFF ratio, 1.12:
U7G U8G G9C U11A C12G C13A
U7G U8G G9C U10G U11C C12A C13U
U7G U8G G9U U10A U11G C13U

Aptazyme ON/OFF ratio, 2.49:
U7G U8G G9C U11C C12U

Aptazyme ON/OFF ratio, 1.16:
U7G U8G G9U U10A U11C C12U C13A
U7G U8G G9C U10G U11C C12G C13U
U7G U8G G9C U11C C12G C13A
U7G U8G G9C U11A C12A C13U
U7G U8G G9C U11G C13G

Aptazyme ON/OFF ratio, 2.2:
U7G U8G G9C U11G

Aptazyme ON/OFF ratio, 1.13:
U7G U8G G9U U10A U11A C12A C13G
U7G U8G G9C U11C C12A C13G
U7G U8G G9U U10A C13A
U7G U8G G9C U11A C12U C13A
U7G U8G G9U U10A U11G C13G
U7G U8G G9U U10A U11G C12G C13A
U7G U8G G9U U10A C12G C13U

Aptazyme ON/OFF ratio, 1.33:
U7G U8G G9C U11C C13U
U7G U8G G9C U10G U11C C12U C13G

Aptazyme ON/OFF ratio, 4.45:
U7G U8G G9C U11C C12A C13U

Aptazyme ON/OFF ratio, 1.14:
U7G U8G G9U U10A U11A C13A
U7G U8G G9U U10A U11C C12G C13U
U7G U8G G9U U10A C12A C13G
U7G U8G G9U U10A U11A C12A
U7G U8G G9C U11A C12A C13A
U7G U8G G9U U10A U11A C12G C13U
U7G U8G G9U C12U C13G
U7G U8G G9C U10G U11G C12U C13A
U7G U8G G9C U11G C12A C13A

Aptazyme ON/OFF ratio, 1.05:
U7G U8G G9C U10G U11C C12G C13G
U7G U8G G9C U10G U11C C12A C13G
U7G U8G G9C U11A C12A C13G
U7G U8G G9C U10G U11C C13U
U7G U8G G9U U10A U11G C12G C13U
U7G U8G G9C U11G C12U C13G
U7G U8G G9C U10G U11G C12U C13G

Aptazyme ON/OFF ratio, 1.38:
U7G U8G G9U U10C C12A

Aptazyme ON/OFF ratio, 2.87:
U7G U8G G9U U10A U11A

Aptazyme ON/OFF ratio, 1.43:
U7G U8G G9U C13U
U7G U8G G9C U11C C12U C13A

Aptazyme ON/OFF ratio, 1.1:
U7G U8G G9U U10C C12G C13G
U7G U8G G9U U10A U11G C12U C13A
U7G U8G G9U U10A U11C C12A C13A
U7G U8G G9U U10A C13G
U7G U8G G9C U10G U11G C12G C13U
U7G U8G G9U C12A C13G
U7G U8G G9U U10A U11G C12A C13A

Aptazyme ON/OFF ratio, 5.2:
U7G U8G G9C U11C C12A

Aptazyme ON/OFF ratio, 1.44:
U7G U8G G9U C13A

Aptazyme ON/OFF ratio, 1.39:
U7G U8G G9C U11C C12G C13U

Aptazyme ON/OFF ratio, 1.27:
U7G U8G G9U C12G C13U
U7G U8G G9U U10A U11G

Aptazyme ON/OFF ratio, 3:
U7G U8G G9C U11C C12G

Aptazyme ON/OFF ratio, 1.32:
U7G U8G G9U U10A U11C C12A

Aptazyme ON/OFF ratio, 4.32:
U7G U8G G9C U11A

Aptazyme ON/OFF ratio, 1.11:
U7G U8G G9C U10G U11G C12A
U7G U8G G9U U10A U11G C12U C13G
U7G U8G G9U U10A U11A C12G C13G
U7G U8G G9U U10A U11G C12A C13U
U7G U8G G9U U10A U11C C13A
U7G U8G G9U U10A C12U C13A
U7G U8G G9U U10A U11A C12U C13G
U7G U8G G9U U10A U11A C12U C13A
U7G U8G G9C U10G U11C C12U C13U

Aptazyme ON/OFF ratio, 1.56:
U7G U8G G9U C12A

Aptazyme ON/OFF ratio, 1.06:
U7G U8G G9C U11C C12G C13G
U7G U8G G9C U10G U11G C12G C13A
U7G U8G G9U C12A C13U
U7G U8G G9U U10A U11G C12G C13G
U7G U8G G9U U10A C12U C13U

Aptazyme ON/OFF ratio, 1.37:
U7G U8G G9C U11C C12A C13A
U7G U8G G9C U11C C12U C13G

Aptazyme ON/OFF ratio, 2.07:
U7G U8G G9C U11C

Aptazyme ON/OFF ratio, 1.6:
U7G U8G G9C U11G C12G

Aptazyme ON/OFF ratio, 1.18:
U7G U8G G9C U11G C12G C13U
U7G U8G G9U C12G
U7G U8G G9C U10G U11G C13A
U7G U8G G9C U10G U11C C12G
U7G U8G G9U U10A U11A C12U C13U

Aptazyme ON/OFF ratio, 1.24:
U7G U8G G9U U10C C12G C13A
U7G U8G G9C U11G C12G C13G

Aptazyme ON/OFF ratio, 1.23:
U7G U8G G9U C12U C13A
U7G U8G G9C U11G C12A C13G

Aptazyme ON/OFF ratio, 1.21:
U7G U8G G9U U10A C12A C13A
U7G U8G G9U U10A C12G

Aptazyme ON/OFF ratio, 1.53:
U7G U8G G9C U11A C12U
